Measured values reported in the supplement of paper PMC10567573.
± gives the standard deviation.

Assay: protein stability index of a GFP-peptide fusion (GPS, HEK-293T) (PSI 1-6); higher = more stable
Settings: c terminus: a fixed tail appended
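Further: 24-mer peptide tiles fused after GFP, lentivirally expressed, FACS-sorted into six equal bins by GFP/DsRed ratio, decoded by Illumina sequencing, PSI is the read-weighted mean bin number.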

Sequence	protein stability index (treatment: DMSO)	protein stability index (treatment: MLN4924 1 uM, 8 h)
MTPDIHELVENIKSVLKSDEEHME [FAM189A2]	4.72 ± 0.24	4.39 ± 0.66
EAQERELRKREKAEEKERRRKEYD [LRRC59]	5.4 ± 0.18	5.49 ± 0.3
AAATTTTTTSAATATTAPPALDIF [SNAP91]	4.45 ± 0.24	4.61 ± 0.16
YESTLFEDQVPALEAPEDIGSTSE [MIA2]	5.55 ± 0.23	5.51 ± 0.33
LALDSGASLLHLAVEAGQEECAKW [RIPK4]	3.73 ± 1.2	3.46 ± 0.4
VLVHVQKWDGKSTTIKRKREDDKL [FABP4]	2.85 ± 0.46	2.85 ± 0.4
SVMVMREILDYIFSGQIRLNEDTI [GAN]	2.53 ± 0.51	2.32 ± 0.64
HVIGEDAACIAYIRLTQYIDGQGR [CAMK2B]	2.15 ± 0.21	2.08 ± 0.2
RTDLKDLIIFDKQSSQRMRQNLKL [CEP70]	2.93 ± 0.24	2.93 ± 0.32
PKPAGGAIPTKKSLPSPSSSGHQN [FBF1]	4.98 ± 0.14	4.92 ± 0.17
DAEFLCVFCREGPTHQAHTVGFLD [TRIM15]	2.31 ± 0.27	2.34 ± 0.33
WVNDPQRMDKRTLALLVLAHSSDV [GOLPH3L]	2.19 ± 0.3	2.18 ± 0.2
AACFDGRLDIVKYLVENNANISIA [FEM1B]	2.38 ± 0.38	2.21 ± 0.38
SIRILDELVLPFQELQIDDNEYAY [HNF4A]	3.46 ± 0.26	3.44 ± 0.26
GVIDLFGDAFGSSASEPQPASQAA [SNAP91]	3.98 ± 0.14	4.11 ± 0.17
TSVLATLVVFAVLGFKANIMNEKC [SLC6A17]	2.66 ± 0.12	3.31 ± 0.11
KKCCIPETRRRMEMAFNTRCKEEN [NLN]	3.57 ± 0.25	3.75 ± 0.22
SSYPVCVSKVVKGGSSGKGTTLRG [OAS1]	4.11 ± 0.39	4.18 ± 0.19
PLEPEDALSDAEFEGEGDYEEGMY [P3H4]	5.59 ± 0.3	5.44 ± 0.34
GQPAPPQLLLGRLFRWPDLQHAVE [SMAD6]	2.63 ± 0.1	2.82 ± 0.39
SETHAAGHSQEKTHSREKSSQESG [CHGB]	5.67 ± 0.22	5.57 ± 0.16
PPPDAAATAASSSASSPASVGDPC [SLC25A25]	5.39 ± 0.14	5.58 ± 0.13
LGLNAAFWFFALTSLRLVFLLAFG [RETREG3]	3.06 ± 0.41	3.35 ± 1.4

Sequence	protein stability index (treatment: DMSO)	protein stability index (treatment: MLN4924 1 uM, 8 h)
NSYPRADTGLFSRSKSGSEEVLCD [TRIM29]	4.62 ± 0.33	4.68 ± 0.32
MQVHKETIDAVPNAIPGRTDIELE [ZNF207]	4.97 ± 0.15	5.17 ± 0.18
RTALEYCKLILSLEPDEDPLCMLL [TCF25]	2.24 ± 0.36	2.32 ± 0.3
VVCGMFGFPGERTYNTKVYKMFAS [LOXL2]	2.66 ± 1.1	2.63 ± 0.2
NLAKEQLSRENIQSSLLETLYRNR [PPEF2]	3.05 ± 0.28	3.22 ± 0.12
RDPSLRPARTVLVGSLSWLRKQLQ	2.75 ± 0.51	3.19 ± 0.48
YKGPLLEEQALTKAAEGGLSSPEF [FAM98B]	4.41 ± 0.33	4.55 ± 0.27
RKLQKEQQRSKDLESRQRSLEQAN [TFE3]	5.09 ± 0.3	5.11 ± 0.27
IYNSNIFTDPFFIVETLCIIWFSF [KCNA1]	3.23 ± 0.2	3.17 ± 0.29
RGIAIVSVLVILISIVIFCLETLP [KCNA4]	2.29 ± 0.17	2.26 ± 0.33
LVYHPVQLSTPHAVGVLLLGLVGY [DHCR7]	3.5 ± 0.77	3.08 ± 0.23
REKQLSHSLRAVSTDPPHHDHHDE [BEX1]	5.37 ± 0.4	5.382 ± 0.051
KNLFGPPLESAFDHEDFTGSSSLG [FCHO1]	4.22 ± 0.13	4.37 ± 0.7
LKKAKVQVERMREVNSRCYQPEPF [FBXO34]	2.79 ± 0.61	2.84 ± 0.16
ASLNIKTTVPEVEPPQDSHSRKTV [PRPH]	5.21 ± 0.43	5.18 ± 0.21
SLLRGFLLQNEFVGFMWRQRGRVI [MCOLN1]	2.29 ± 0.2	2.13 ± 0.2
HLDHYYQEELPALLKALVSELSEH [FCHSD1]	2.3 ± 0.079	2.15 ± 0.37
ALILHQRIHSGKKPYACDECAKAF [ZNF396]	2.11 ± 0.26	2.84 ± 0.45
RLAADDFRTKFETEQALRLSVEAD [KRT17]	4.8 ± 0.3	4.66 ± 0.15
TLNVDRKEKCVSLPDCCHGSELRD [DLC1]	4.15 ± 0.1	4.26 ± 0.15
ITFPSLESCEEKNQLILTASADRT [WDR41]	4.02 ± 0.29	4.1 ± 0.35
IVTVHYGCASFIYLRPQSNYSSSQ [OR10K2]	2.92 ± 0.39	2.95 ± 0.56
SSSSECLEDSTMGSVADTVARVLR [PLK2]	4.08 ± 0.22	4.03 ± 0.34

Sequence	protein stability index (treatment: DMSO)	protein stability index (treatment: MLN4924 1 uM, 8 h)
SQVCRVAYEIMQTLHPDASANFHS [FUT8]	2.34 ± 0.36	2.27 ± 0.42
HMVKISGGPRISYPLLHEWALREG [MAGEA6]	2.47 ± 0.23	2.46 ± 0.22
PPPLGPVVPVLVFPPDLVFRADQR [MOSPD3]	3.25 ± 0.13	3.22 ± 0.32
RDEAIYECVASNNVGEISVSTRLT [PTPRD]	4.03 ± 0.34	3.91 ± 0.23
CSFSIERILGLDQKKDCVPLMKPH [HESX1]	2.33 ± 0.19	2.43 ± 0.23
CTLEQDHFKKQTIYRFLKLHPRGK [FEM1C]	2.43 ± 0.27	2.65 ± 0.37
RFIRERDRAVNDYPSLYYPEMYIL [CDC25B]	2.49 ± 0.53	1.91 ± 0.29
KQEQSIISEYEKSLQFDEKCLSIM [RPAIN]	3.67 ± 0.12	3.69 ± 0.23
ISCPTCRRETVLFTDYGLAALAVN [RNF208]	2.15 ± 0.13	2.22 ± 0.28
CRMSIRRVMPTQEVQELPIPSKLL [WSB1]	2.42 ± 0.2	2.52 ± 0.2
EPEAASSRGSPVRVKREFEPASAR [USP39]	5.04 ± 0.16	5.11 ± 0.16
GKRTPRGRRGWKKFYAVLKGTILY [PSD2]	2.97 ± 1.6	2.61 ± 0.73
ITIGYRVYHSYDLPWFRTLSWYFL [CDS1]	2.92 ± 0.42	3.1 ± 0.6
NHPDLAKDLTEYLKVRSHDPEEAI [PDS5B]	4.7 ± 0.23	4.43 ± 0.59
REQGPREQEPELSFLKQKEQLEAE [PBXIP1]	5.5 ± 0.35	5.58 ± 0.33
RERAVEWRERAVEKRERALEEVER [ZBED2]	4.9 ± 0.71	5.08 ± 0.29
ASLHPSVSPGSPPPPLPNHKYNTT [PLAGL1]	4.58 ± 0.14	4.586 ± 0.043
NTFIALALQTLLTLIVVDASGLGL [SLC19A2]	3.36 ± 0.57	3.3 ± 0.27
ANGGAICAVTFFTILLSYGVILHS [OR4A15]	2.79 ± 0.25	2.84 ± 0.31
YRDYGHSRRDESYSRGYRNRRSSR [RBMY1A1]	4.75 ± 0.14	4.79 ± 0.12
VSQAVEGPEELSRSSSESKLPSSG [RIPK4]	5.21 ± 0.62	5.06 ± 0.58
TQIRTITEEIRDGKVISSREHVQS [KRT36]	4.75 ± 0.088	4.86 ± 0.1
LTENTAENRELYIKTTLRELLVYI [PKD2L1]	2.31 ± 0.36	2.45 ± 0.33

Sequence	protein stability index (treatment: DMSO)	protein stability index (treatment: MLN4924 1 uM, 8 h)
VPVQPLLPESLARSLLPSTEYQKQ [FBF1]	4.18 ± 0.18	4.58 ± 0.28
APSKEEMLSWILRINLVAAIFSAP [PSD2]	2.71 ± 0.32	3.03 ± 0.62
LLERQVEMTPEKFSVLMEKLCKKG [FANCE]	3.03 ± 0.26	3.36 ± 0.19
VTGREGFPTDAPYPTTLGKDRECQ [ZNF8]	4.74 ± 0.13	4.8 ± 0.32
DPNINPTIGASFMTKTVQYQNELH [RAB22A]	4.29 ± 0.31	4.19 ± 0.23
QLDIEEEGRPGAATFHVGGGPAQN [TFE3]	5.26 ± 0.31	5.16 ± 0.32
LPAQPNRKPGMSSTARRSRAASSQ [CHMP4C]	4.88 ± 0.16	4.87 ± 0.16
STIVVMLTKLREMGREKCHQYWPA [PTPRD]	2.55 ± 0.22	2.63 ± 0.44
IPAVGSSLSEALDLIESDPDAWCD [MYBL2]	4.47 ± 0.58	4.58 ± 0.23
DSTGYMEVSLDSLDLRVKGILSSQ [EHMT1]	3.08 ± 0.36	3.17 ± 0.29
IHFDSYITCVSGAIVDLISRQYDK [FBXO33]	2.7 ± 0.47	2.81 ± 0.53
AVNRARRPLARPIKRGDILPPEKG [RHOBTB1]	3.66 ± 0.23	3.77 ± 0.33
VGVAGLISPWNLPLYLLTWKIAPA [ALDH8A1]	2.92 ± 0.97	2.88 ± 0.95
SRVTAFLDDLSQKLKPLGEAEREF [NLN]	2.84 ± 0.07	3.12 ± 0.51
GNIKGIEGHSPGNLPKFCHECGTK [ZC2HC1A]	3.82 ± 0.52	4.59 ± 0.085
GSPVSSWILLAESNSADDETDDPR [OAS1]	5.02 ± 0.27	4.99 ± 0.39
AFGWFRCSSCQRSWASAQVQILCH [RTP4]	2.45 ± 0.37	2.68 ± 0.54
RPDGDCASSLNGGNIKGIEGHSPG [ZC2HC1A]	5.16 ± 0.18	5.02 ± 0.31
KQDSLVILTIMATLKIRNSNFYTV [TMEM106C]	3.25 ± 0.41	3 ± 0.67
TWWIMFLSTFSVPYFLFQHWATGY [SOAT1]	3.18 ± 0.29	2.77 ± 0.51
